Measurements from US20250282885A1 (VST BIO, published 2025).

Tests used:
[1] = target: human Sdc2 on Human Umbilical Vein Endothelial Cells (HUVEC) (human, UniProt P34741 19-201); assay: cell-based or functional assay
[2] = target: T1, human Sdc2 (human, UniProt P34741 19-144, limits assumed); assay: Kd (human Sdc2), summary table of the mAbs
T1 construct: Antigen of the Octet tandem binning, loaded on biosensors at 100 nM; also called huSdc2; hSdc2

[3] = target: T1, human Sdc2; assay: Octet tandem binning; saturating Ab m2 19838-8G17-A
[4] = target: T1, human Sdc2; assay: Octet tandem binning; saturating Ab f9 19838-6-E17-A
[5] = target: T1, human Sdc2; assay: Octet tandem binning; saturating Ab f12 19838-6-N03-A
[6] = target: T1, human Sdc2; assay: Octet tandem binning; saturating Ab f10 19838-10-I12-A
[7] = target: T1, human Sdc2; assay: Octet tandem binning; saturating Ab f11 19838-20-H19-A
[8] = target: T1, human Sdc2; assay: Octet tandem binning; saturating Ab f4 19844-R3-P3-C11
Procedure, shortened: (§1)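 Human Sdc2 (100 nM) served as antigen on Octet biosensors, which were dipped in saturating antibody at 25 μg/ml for 240 s, then competing antibody at 5 μg/ml for 180 s. Competing-antibody signal was divided by its binding after a buffer-only saturation step.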

[9] = target: T1, human Sdc2; assay: Octet tandem binning; saturating Ab f6 19844-R3-P3-E09
Procedure, shortened: as §1

[10] = target: T1, human Sdc2; assay: Octet tandem binning; saturating Ab f7 19844-R3-P3-A12
[11] = target: T1, human Sdc2; assay: Octet tandem binning; saturating Ab m7 19844-R3-P1-E07
[12] = target: T1, human Sdc2; assay: Octet tandem binning; saturating Ab m4 19844-R4M-P1-A10
Procedure, shortened: as §1

[13] = target: T1, human Sdc2; assay: Octet tandem binning; Buffer in place of a saturating Ab
[14] = target: T1, human Sdc2; assay: Octet BLI, HIS1K sensor loaded with huSdc2, antibody as sample; Full R2 0.9668
Protocol: (§2) In order to characterize the binding affinity and in vivo/in vitro functional ability of the twelve clones generated by the previous studies and disclosed in Table 1, a series of assays were performed on each clone. These assays measured the affinity of each antibody clone for human, pig, and mouse Sdc2 using an Octet® binding assay system. Additionally, the functional ability of each clone to inhibit VEGFA-driven permeability (see Santiago, et al. (2021) J Am Heart Assoc. 10(18):e020521) was assessed in two therapeutic settings: a “prevention” study in which three concentrations of antibody (5 μg/ml, 10 μg/ml, 15 μg/ml, 20 μg/ml, and/or 40 μg/ml depending on the study) were pre-incubated for an hour before administration of 100 ng/ml of VEGFA, and a “treatment” study in which 3 hours of pre-treatment with 100 ng/ml VEGFA were followed by treatment with antibody at 20 μg/ml or 40 μg/ml. Results are shown for 8-G17 in FIG. 8 and FIG. 9, 20-H19-AB in FIG. 10 and FIG. 11 (FIG. 12 for monkey ECs), R3-P3-C11 in FIG. 13 and FIG. 14, R4M-P3-E06 in FIG. 15 and FIG. 16, R3-P3-E09 in FIG. 17 and FIG. 18, R3-P1-C02 in FIG. 19 and FIG. 20, R3-P3-A12 in FIG. 21 and FIG. 22, R4M-P3-A12 in FIG. 23 and FIG. 24, and R4M-P1-A10 in FIG. 25 and FIG. 26.

[15] = target: T2, mouse Sdc2 (mouse, UniProt P43407 19-145, limits assumed); assay: Octet BLI, HIS1K sensor loaded with moSdc2, antibody as sample; Full R2 0.9584
T2 construct: Immobilised on Maxisorp plates for panning and ELISA; also called mSdc2; moSdc2

[16] = target: T1, human Sdc2; assay: Octet tandem binning; saturating Ab m6 19838-20H19-AA (marked non-binding ligand)
[17] = target: T3, pig Sdc2 (pig, UniProt F1S0L5 19-145); assay: Octet BLI, heading box over the sensorgram; the box prints nm, the table gives 1.50E-08 M
T3 construct: also called pSdc2
Protocol: as §2

T2 sequence (P43407 19-145 limits assumed): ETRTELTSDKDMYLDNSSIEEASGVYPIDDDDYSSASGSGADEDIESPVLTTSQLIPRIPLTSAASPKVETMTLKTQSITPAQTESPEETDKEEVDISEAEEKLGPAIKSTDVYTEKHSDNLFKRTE
T1 sequence (P34741 19-144 limits assumed): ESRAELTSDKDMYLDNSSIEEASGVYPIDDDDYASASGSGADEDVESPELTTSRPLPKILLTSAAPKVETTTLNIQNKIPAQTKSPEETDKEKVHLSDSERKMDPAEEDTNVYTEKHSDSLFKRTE
Sequence of human Sdc2 on Human Umbilical Vein Endothelial Cells (HUVEC) (P34741 19-201 limits assumed): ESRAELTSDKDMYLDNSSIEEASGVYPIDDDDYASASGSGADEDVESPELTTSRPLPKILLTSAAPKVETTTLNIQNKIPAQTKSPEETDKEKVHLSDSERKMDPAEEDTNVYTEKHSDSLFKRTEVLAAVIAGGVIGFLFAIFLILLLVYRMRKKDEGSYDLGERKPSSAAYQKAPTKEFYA

B1: R4M-P3-A12 (antibody, human IgG1, kappa, V domains shown)
VH: EVQLVESGGGVVQPGGSLRLSCAASGFTFSDHYMSWIRQAPGKGLEWVSYLSGSGTSIYYADSVKGRFTISRDNAKKSLYLQMNSLRAEDTAVYYCARVGPAAGNAFDIWGQGTMVTVSS
VL: QSVLTQPPSASGTPGQRVTISCSGSSSNIGSNYVYWYQQLPGTAPKLLIYRNNQRPSGVPDRFSGSKSGTSASLAITGLQAEDEADYYCQSYDSSLSGVVFGGGTKLTVLR
% Inhibition of VEGFA-induced permeability at 24hrs (20ug/ml) [1]: 60%
Kd [2]: 14 nM
raw competing-Ab binding signal [3]: 0.103
raw competing-Ab binding signal [4]: 0.115
raw competing-Ab binding signal [5]: 0.136
raw competing-Ab binding signal [6]: 0.152
raw competing-Ab binding signal [7]: 0.165
raw competing-Ab binding signal [8]: -0.0875
raw competing-Ab binding signal [9]: -0.0526
raw competing-Ab binding signal [10]: -0.0178
raw competing-Ab binding signal [11]: 0.132
raw competing-Ab binding signal [12]: -0.0712
raw competing-Ab binding signal [13]: 0.0926
Kd [14]: 14.4 nM
koff [14]: 0.067 s⁻¹
kon [14]: 4.65e+06 M⁻¹ s⁻¹
Kd [15]: 11.6 nM
koff [15]: 0.00914 s⁻¹
kon [15]: 3.74e+06 M⁻¹ s⁻¹
raw competing-Ab binding signal [16]: 0.165
Kd [17]: ~15 nM
